Columns and labels:
[1] = molecular target: T1, recombinant human common γ chain (γc; CD132) (human, UniProt P31785 23-262); experiment: SPR, recombinant receptor chain immobilised on the chip, antibody flowed over
T1 construct: Recombinant chain immobilised on the SPR chip and used as antigen in the ELISAs; also called IL-2Rγc; IL-2Rγ
T1 sequence (looked up): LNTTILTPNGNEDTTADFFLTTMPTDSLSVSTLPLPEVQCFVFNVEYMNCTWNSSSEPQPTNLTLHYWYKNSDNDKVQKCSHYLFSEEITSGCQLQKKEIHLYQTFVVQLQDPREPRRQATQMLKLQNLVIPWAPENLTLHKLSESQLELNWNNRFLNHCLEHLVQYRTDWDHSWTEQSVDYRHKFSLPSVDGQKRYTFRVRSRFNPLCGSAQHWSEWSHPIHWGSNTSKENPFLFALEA

[2] = molecular target: T2, recombinant human interleukin 2 receptor β (IL-2Rβ; CD122) (human, UniProt P14784 27-240); experiment: as above
T2 construct: Recombinant chain immobilised on the SPR chip and used as antigen in the ELISAs; also called human IL-2Rβ
T2 sequence (looked up): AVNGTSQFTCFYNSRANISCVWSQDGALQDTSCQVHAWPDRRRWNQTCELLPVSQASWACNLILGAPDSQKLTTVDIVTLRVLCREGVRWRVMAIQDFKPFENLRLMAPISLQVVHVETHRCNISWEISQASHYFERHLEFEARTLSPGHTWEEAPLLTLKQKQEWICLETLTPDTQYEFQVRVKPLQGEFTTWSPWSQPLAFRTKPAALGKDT

B1: bispecific anti-IL-2Rβ/γc antibody P2D12/P1A3 (bispecific antibody)
chain 1: HVQLVETGGGLVQPGGSLRLSCAASGFTFSSYAMSWVRQAPGKGLEWVSAISGSGGSTYYADSVKGRFTISRDNSKNTLYLQMNSLRAEDTAVYYCARDLGDYWGQGTLVTVSSGGGGSGGGGSGGGGSDIQLTQSPSSLSASVGDRVTITCQASQDIGNYLNWYQLKPGKAPKLLIYDASNLETGVPSRFSGSGSGTDFTFTISSLQPEDIATYYCLQLYDYPLTFGGGTKVEIK
chain 2: not shown
- Kd [1]: 78.7 nM
- Kd [2]: 181 nM

From patent US20160367664A1 (AGENCY FOR SCIENCE TECHNOLOGY AND RESEARCH, published 2016)
